# T1: rat IL-17A (rat, UniProt Q61453 18-150, limits assumed)
# T1 sequence (looked up): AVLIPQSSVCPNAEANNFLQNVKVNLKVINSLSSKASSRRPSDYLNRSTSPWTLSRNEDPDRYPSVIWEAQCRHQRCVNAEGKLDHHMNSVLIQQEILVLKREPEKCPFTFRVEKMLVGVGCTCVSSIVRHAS
# B1: BCD085 monoclonal anti-IL-17A antibody (antibody, V domains shown)
# VH: QVQLVQSGGGLVQPGGSLRLSCAADGFTFSNYAMSWVRQAPGKGLEWVSRIEGGIGSSTYAVDSVKDRFTISRDDAKNTLYLQMSSLKTEDTAVYYCAVNYYGMYYWGQGTLVTVSS
# VL: QSVLTQPPSVSVAPGKTVTISCTGTSEDVGFGNYVSWYQHLPGTAPKLLIYRVNTRPSGVPDRFSGSQSGNTASLTISGLQAEDEADYYCSSYKAGGTYVFGGGTKLTVLG
# notes: Full-length antibody produced in CHO-S cells; also called the candidate; monoclonal anti-IL-17A antibody of the invention
# Legend:
# [1] = biological target: T2, human IL-17A (human, UniProt Q16552 20-155, limits assumed); assay: cell-based or functional assay
# T2 sequence (Q16552 20-155 limits assumed): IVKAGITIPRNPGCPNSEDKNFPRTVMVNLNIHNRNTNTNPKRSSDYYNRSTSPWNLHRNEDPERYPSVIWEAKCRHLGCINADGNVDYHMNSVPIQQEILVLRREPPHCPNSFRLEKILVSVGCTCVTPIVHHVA
# [2] = biological target: T1, rat IL-17A; assay: BLI, OctetRed 96, BCD085 immobilized on AR2G sensors, IL-17A as analyte
# Description: (§1) The affinity of BCD085 binding with human, monkey and rat IL-17A was analyzed on OctetRed 96 (ForteBio). BCD085 was non-specifically immobilized on the surface of amine reactive second-generation sensors (AR2G) according to the standard protocol described in the manufacturer's manual. The test was conducted at a temperature of 30° C. and using PBS with 0.1% Tween-20 and 0.1% BSA as a working buffer.
# (§2) Binding curves (after subtracting a reference signal) were analyzed using Octet Data Analysis software (Version 7.0) in accordance with the standard procedure and using 1:1 interaction model.
# [3] = biological target: T2, human IL-17A; assay: BLI, OctetRed 96, BCD085 immobilized on AR2G sensors; human against monkey IL-17A
# Description: as §1, §2
# [4] = biological target: T2, human IL-17A; assay: BLI (OctetRed 96), BCD085 on AR2G sensors, human IL-17A as analyte, row 'Concentration (nm)' 34,3; 1:1 model; R^2 0,937248
# Description: as §1, §2
# [5] = biological target: T2, human IL-17A; assay: BLI (OctetRed 96), BCD085 on AR2G sensors, human IL-17A as analyte, row 'Concentration (nm)' 68,6; 1:1 model; R^2 0,973327
# Description: as §1, §2
# [6] = biological target: T3, monkey IL-17A (Macaca mulatta) (Macaca mulatta, UniProt F6T3G5 24-155); assay: BLI (OctetRed 96), BCD085 on AR2G sensors, monkey IL-17A as analyte, row 'Concentration (nm)' 17,2; 1:1 model; R^2 0,983707
# T3 sequence (F6T3G5 entry or part of it): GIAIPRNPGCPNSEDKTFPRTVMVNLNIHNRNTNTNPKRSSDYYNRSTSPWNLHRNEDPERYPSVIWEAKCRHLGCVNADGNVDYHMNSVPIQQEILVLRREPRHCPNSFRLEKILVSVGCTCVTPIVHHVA
# Description: as §1, §2
# [7] = biological target: T3, monkey IL-17A (Macaca mulatta); assay: BLI (OctetRed 96), BCD085 on AR2G sensors, monkey IL-17A as analyte, row 'Concentration (nm)' 34,4; 1:1 model; R^2 0,964905
# Description: as §1, §2
# [8] = biological target: T3, monkey IL-17A (Macaca mulatta); assay: BLI (OctetRed 96), BCD085 on AR2G sensors, monkey IL-17A as analyte, row 'Concentration (nm)' 68,7; 1:1 model; R^2 0,956946
# Description: as §1, §2
binder,measurement,setting,value
B1,"IC50, blocking of IL-17-induced IL-6 production by human HT1080 cells (40 ng/ml IL-17 + 20 ng/ml TNF-alpha), IL-6 measured by ELISA",[1],0.04 nM
same,binding result,[2],no binding (tested: 126 nM (highest concentration titrated))
same,fold stronger affinity than to monkey IL-17A,[3],1000 fold
same,Kd,[4],< 0.001 nM
same,Kd,[5],< 0.001 nM
same,Kd,[6],2.22 nM
same,Kd,[7],4.15 nM
same,Kd,[8],5.97 nM
